Laboratory results published in paper PMC4009770, “A Comparison of Two Single-Stranded DNA Binding Models by Mutational Analysis of APOBEC3G”.

Legend:
Assay in all cases: EMSA; EMSA: 10 mM Tris-HCl pH 7.5, 50 mM NaCl, 0.5% NP-40, 4% glycerol, 1 mM MgCl2, 0.5 mM EDTA, 1 mM DTT, 20 min room temperature, 4 pmol oligo in 20 uL, gel at 4 C; NMR: 50 mM sodium phosphate pH 7.4, 1 mM DTT, 50 uM ZnCl2, 300 uM protein
A3G E259Q = A3G E259Q (human, UniProt Q9HC16 1-384, E259Q); settings: protein: recombinant; tags: C-terminal Strep; label: 5' Alexa488; single strand
Sequence of A3G E259Q (Q9HC16 whole entry E259Q): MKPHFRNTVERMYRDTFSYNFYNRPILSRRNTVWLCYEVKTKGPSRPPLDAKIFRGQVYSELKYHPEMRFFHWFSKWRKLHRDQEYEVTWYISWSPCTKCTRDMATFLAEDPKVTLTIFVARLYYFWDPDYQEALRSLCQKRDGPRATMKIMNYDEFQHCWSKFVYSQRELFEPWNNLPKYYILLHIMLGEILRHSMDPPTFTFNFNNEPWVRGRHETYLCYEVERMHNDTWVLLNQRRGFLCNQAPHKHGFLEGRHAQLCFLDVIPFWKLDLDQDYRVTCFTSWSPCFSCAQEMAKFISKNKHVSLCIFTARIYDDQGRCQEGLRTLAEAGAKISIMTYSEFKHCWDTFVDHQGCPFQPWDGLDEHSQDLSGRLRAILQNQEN

A3G E67Q = A3G E67Q (human, UniProt Q9HC16 1-384, E67Q); settings: protein: recombinant; tags: C-terminal Strep; label: 5' Alexa488; single strand
Sequence of A3G E67Q (Q9HC16 whole entry E67Q): as the sequence (Q9HC16 whole entry E259Q) above, with E67Q, Q259E counted along it

A3G R374E/R376E = A3G R374E/R376E (human, UniProt Q9HC16 1-384, R374E;R376E); settings: protein: recombinant; tags: C-terminal Strep; label: 5' Alexa488; single strand
Sequence of A3G R374E/R376E (Q9HC16 whole entry R374E/R376E): as the sequence (Q9HC16 whole entry E259Q) above, with Q259E, R374E, R376E counted along it

A3G R215E = A3G R215E (human, UniProt Q9HC16 1-384, R215E); settings: protein: recombinant; tags: C-terminal Strep; label: 5' Alexa488; single strand
Sequence of A3G R215E (Q9HC16 whole entry R215E): as the sequence (Q9HC16 whole entry E259Q) above, with R215E, Q259E counted along it

A3G R313E/R320E = A3G R313E/R320E (human, UniProt Q9HC16 1-384, R313E;R320E); settings: protein: recombinant; tags: C-terminal Strep; label: 5' Alexa488; single strand
Sequence of A3G R313E/R320E (Q9HC16 whole entry R313E/R320E): as the sequence (Q9HC16 whole entry E259Q) above, with Q259E, R313E, R320E counted along it

A3G R313E = A3G R313E (human, UniProt Q9HC16 1-384, R313E); settings: protein: recombinant; tags: C-terminal Strep; label: 5' Alexa488; single strand
Sequence of A3G R313E (Q9HC16 whole entry R313E): as the sequence (Q9HC16 whole entry E259Q) above, with Q259E, R313E counted along it

A3G-S wild type = A3G-S wild type (human, UniProt Q9HC16 1-384); settings: protein: recombinant; tags: C-terminal Strep (STP cleaved by TEV); label: 5' Alexa488; single strand
Sequence of A3G-S wild type (Q9HC16 whole entry): as the sequence (Q9HC16 whole entry E259Q) above, with Q259E counted along it

A3G R213E/R215E = A3G R213E/R215E (human, UniProt Q9HC16 1-384, R213E;R215E); settings: protein: recombinant; tags: C-terminal Strep; label: 5' Alexa488; single strand
Sequence of A3G R213E/R215E (Q9HC16 whole entry R213E/R215E): as the sequence (Q9HC16 whole entry E259Q) above, with R213E, R215E, Q259E counted along it

Measured: binding result

B1: Alexa488 69-mer (ssDNA)
DNA: GAAGAGGAAGGGAAGAAAGAGAAAGGGAGACCCAAAGAGGAAAGGTGAGGAGGTTAATTTGTGTAAATA
binds: all assays above
